Legend:
[1] = Denim bleaching at different pH-values (Launder Ometer); settings: 50° C.; for Increase of L* / L* after laccase treatment / b* after laccase treatment: 200 nkat/g, 30 min
Protocol: Lee Cooper jeans (Hamilton, 111-1060-55522-65, MASI Company Oy, Finland, former name M.A.S.I. jeans Oy) that were made of ring spun yarn in warp and open-end yarn in weft and were previously desized and treated with neutral ECOSTONE® cellulase were used as a test material. Laccase treatments were performed in LP-2 Launder Ometer as follows. About 10 g of denim swatches (15×14 cm) were loaded into 1.2 liter containers containing 200 ml Mc Ilvaine's citrate phosphate buffer pH 5, 6 or 7 and the containers were temperated. Enzyme with or without the mediator (methyl syringate, DeniLite II Assist, Novozymes) was added. Enzyme was dosed 200 nkat/g and the mediator 10 mg/g on the weight of fabric. […] The Launder Ometer was run at 50° C. for 30 min and after that the temperature in Launder was raised to 80° C. for 10 min. The swatches were rinsed carefully with warm water, dried half-dry in a tumbler and after that air dried.
The bleaching effect was evaluated by measuring the colour as reflectance values with the Minolta Spectrophotometer CM 1000 (Minolta Co.) using L*a*b* color space coordinates (illuminant D65/2°). The colour from both sides of the swatches was measured before and after the laccase treatment. Each measurement was the average of several, at least ten, measurements.

[2] = Specific activity on guaiacol; assay type: biochemical; settings: 25 mM MES buffer, pH 5.5
Protocol: Specific activities of the purified Thielavia laccase were determined towards different laccase substrates.

[3] = Stain removal with laccases, grass; settings: 60 min, pH 6
Protocol: The TaLcc1 (RF5598) and Denilite II Base laccase preparations were tested for their ability to remove stains. The following artificially soiled test cloths were used: grass soiling (Art. 164, EMPA Testmaterialen, Germany), tea soiling (Art. 167, EMPA Testmaterialen, Germany). The fabric was cut in 5.8×5.8 cm swatches. Laccase treatments were performed in LP-2 Launder Ometer as follows. About 5 g of soiled fabrics were loaded into 1.2 liter containers containing 150 ml Mc Ilvaine's citrate phosphate buffer pH 6 and the containers were temperated. Enzymes with or without the mediator (methyl syringate, DeniLite II Assist, Novozymes) were dosed as laccase activity units (Example 7). Enzyme dosage was 200 nkat/g and mediator dosage 10 mg/g of the weight of fabric, except at 40° C. also dosages of 20 nkat/g and 2 mg/g were used. The Launder Ometer was run at 40, 50 or 60° C. and pH 6 for 60 min. After that the swatches were carefully rinsed under running water and in shake flasks containing warm water and dried in the air.
The stain removal effect was evaluated by measuring the colour as reflectance values using L*a*b* color space coordinates (Example 7). The colour of the swatches was measured before and after the laccase treatment.

[4] = 20 nkat/g, mediator 2 mg/g, 40° C.
[5] = 200 nkat/g, mediator 0 mg/g, 40° C.
[6] = 200 nkat/g, mediator 0 mg/g, 60° C.
[7] = 200 nkat/g, mediator 10 mg/g, 40° C.
[8] = 200 nkat/g, mediator 10 mg/g, 50° C.
[9] = 200 nkat/g, mediator 10 mg/g, 60° C.

B1: TaLcc1: Recombinant Thielavia arenaria ALKO4197 laccase 1 (SEQ ID NO: 12) produced in Trichoderma reesei strains RF5597/RF5598 (protein)
chain: MKSWAAAVALMVGILSPHAAAAPPANPVQRDMLQVLEARQSGPTCNTPSNRACWTNGFDINTDYEVSTPNTGRTVAYQLTLTEKENWIGPDGVLKNVVMLVNDKIIGPTIRANWGDNIEVTVINNLKTNGTSMHWHGLRQLGNVFNDGANGVTECPIPPKGGRKTYKFRATQYGTSWYHSHFSAQYGNGVVGTIQIDGPASLPYDIDLGVFPLMDYYYRSADELVHFTQSNGAPPSDNVLFNGTARHPETGAGQWYNVTLTPGKRHRLRIINTSTDNHFQVSLVGHNMTVIATDMVPVNAFTVSSLFLAVGQRYDVTIDANSPVGNYWFNVTFGDGLCGSSNNKFPAAIFRYQGAPATLPTDQGLPVPNHMCLDNLNLTPVVTRSAPVNNFVKRPSNTLGVTLDIGGTPLFVWKVNGSAINVDWGKPILDYVMSGNTSYPVSDNIVQVDAVDQWTYWLIENDPTNPIVSLPHPMHLHGHDFLVLGRSPDELPSAGVRHIFDPAKDLPRLKGNNPVRRDVTMLPAGGWLLLAFKTDNPGAWLFHCHIAWHVSGGLSVDFLERPNDLRTQLNSNAKRADRDDFNRVCREWNAYWPTNPFPKIDSGLRHRFVEESEWMVR
modifications: Thielavia arenaria ALKO4197; (1)..(617) Deduced amino acid sequence of Thielavia arenaria ALKO4197 laccase 1 (Ta Lcc1)
Increase of L* ([1]; mediator 0 mg/g, pH 5): 0.14
L* after laccase treatment ([1]; mediator 0 mg/g, pH 5): 28.22
b* after laccase treatment ([1]; mediator 0 mg/g, pH 5): −18.35
Increase of L* ([1]; mediator 0 mg/g, pH 6): 0.82
L* after laccase treatment ([1]; mediator 0 mg/g, pH 6): 29.58
b* after laccase treatment ([1]; mediator 0 mg/g, pH 6): −18.38
Increase of L* ([1]; mediator 0 mg/g, pH 7): 0.37
L* after laccase treatment ([1]; mediator 0 mg/g, pH 7): 27.80
b* after laccase treatment ([1]; mediator 0 mg/g, pH 7): −18.50
Increase of L* ([1]; mediator 10 mg/g, pH 5): 13.52
L* after laccase treatment ([1]; mediator 10 mg/g, pH 5): 42.04
b* after laccase treatment ([1]; mediator 10 mg/g, pH 5): −14.78
Increase of L* ([1]; mediator 10 mg/g, pH 6): 21.19
L* after laccase treatment ([1]; mediator 10 mg/g, pH 6): 48.97
b* after laccase treatment ([1]; mediator 10 mg/g, pH 6): −12.36
Increase of L* ([1]; mediator 10 mg/g, pH 7): 16.92
L* after laccase treatment ([1]; mediator 10 mg/g, pH 7): 44.71
b* after laccase treatment ([1]; mediator 10 mg/g, pH 7): −14.43
optimum pH in denim bleaching ([1]; pH 5 to 7 tested): 6
Specific activity on guaiacol [2]: 61 nkat/mg
Grass L* [3, 4]: 80.16
Grass a* [3, 4]: −0.73
Grass b* [3, 4]: 16.20
Grass L* [3, 5]: 80.25
Grass a* [3, 5]: −4.22
Grass b* [3, 5]: 17.41
Grass L* [3, 6]: 79.38
Grass a* [3, 6]: −4.19
Grass b* [3, 6]: 17.77
Grass L* [3, 7]: 80.34
Grass a* [3, 7]: 0.47
Grass b* [3, 7]: 16.51
Grass L* [3, 8]: 80.60
Grass a* [3, 8]: −0.18
Grass b* [3, 8]: 17.65
Grass L* [3, 9]: 80.6
Grass a* [3, 9]: 0.02
Grass b* [3, 9]: 18.71

Reference: patent US7927849B2, “Laccase enzyme and use thereof” (AB Enzymes OY, priority 2004, dated 2011)
